Data from publication PMC5869396.

Target: recombinant Shiga toxin-2a B subunit (rStx2aB), C-terminal 6xHis tag (E. coli O157:H7 strain EDL933)
Assay: SEC; rStx2aB on Superdex-75 16/60 in PBS, 1 mL/min

recombinant Shiga toxin-2a B subunit (rStx2aB), C-terminal 6xHis tag (domain or fragment)
stoichiometry N: 5
